Experimental data as given in patent publication US20080112961A1.
pKd: −log10 of the molar value.

How the values were obtained:
[1] = target: soluble monomeric FcγRIIIA, the extracellular region of FcγRIIIA joined to the linker-AVITAG sequence (UniProt P08637); experiment: BIAcore, Ab on BSA-FITC
[2] = target: soluble monomeric FcγRIIIA, the extracellular region of FcγRIIIA joined to the linker-AVITAG sequence (UniProt P08637); experiment: ELISA
[3] = target: FcγRIIB-Fc fusion protein, soluble dimer: extracellular domain of FcγRIIB fused to the hinge-CH2-CH3 domain of human IgG2 (human) (UniProt P31994); experiment: BIAcore, Ab on BSA-FITC
[4] = target: FcγRIIB (form not stated) (UniProt P31994); experiment: ELISA
FcγRIIB (form not stated), sequence (P31994 43-217 limits assumed): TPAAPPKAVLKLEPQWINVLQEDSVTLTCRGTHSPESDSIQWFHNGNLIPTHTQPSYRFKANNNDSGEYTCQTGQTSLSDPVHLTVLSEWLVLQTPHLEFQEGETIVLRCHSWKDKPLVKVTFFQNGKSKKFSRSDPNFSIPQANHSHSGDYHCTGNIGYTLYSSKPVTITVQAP

FcγRIIB-Fc fusion protein, soluble dimer: extracellular domain of FcγRIIB fused to the hinge-CH2-CH3 domain of human IgG2 (human), sequence (P31994 43-217 limits assumed): as above

| pKd [1] | ELISA, OD [2] | pKd [3] | ELISA binding, fold vs Wt [4] | Substance |
| --- | --- | --- | --- | --- |
| – | 0.5 OD | – | – | ch4-4-20 wild type (from UniProt P01857 1-330) (antibody) |
| 6.58 | 0.6 OD | 7.18 | – | ch4-4-20 Mut 6 (S219V) (from UniProt P01857 1-330) (antibody) |

The next lines start with the substance.

| Substance | pKd [1] | ELISA, OD [2] | pKd [3] | ELISA binding, fold vs Wt [4] |
| --- | --- | --- | --- | --- |
| ch4-4-20 Mut 10 (P396L, A330S, K288N) (from UniProt P01857 1-330) (antibody) | 6.89 | – | – | – |
| ch4-4-20 MGFc 28 (N315I, A379M, D399E) (antibody) | – | – | – | 9 X |
| ch4-4-20 Mut 14 (K334E, K288N) (from UniProt P01857 1-330) (antibody) | 7.12 | – | – | – |
